In patent US11911450B2, “Method for managing pain” (UNIVERSITY OF MIAMI, priority 2017, dated 2024):

Columns and labels:
[1] = molecular target: ITPR1 (Homo sapiens, UniProt Q14643); test: NGF-induced intracellular calcium release / ITPR1 activation in NBL cells; format: cell-based; design: endogenous in cells
[2] = test system: intracellular calcium release in NBL cells; test: ATP-stimulated calcium release in NBL cells (Fura2 imaging); format: cell-based, human; conditions: 1 μM ATP, vs empty vector
Method: Pharmacodynamics—Bioassay of Calcium Release: Fifteen mm glass coverslips (cat #72228 Electron Microscopy Sciences, Hatfield, PA) were coated with poly-D-Lysine (Sigma) followed by Laminin and 1×10^5 cells were seeded on each coverslip. Twenty-four hrs later, cells were transfected with AAV2-ITR, AAV2-V5-Car10, or AAV2-V5-CA10 vectors as previously described. In embodiments wherein AAV2 is not employed, other expression vectors (including viral vectors) are used. Fura-2AM (cat #F1221 ThermoFisher scientific, Waltham, MA) was dissolved in DMSO (50 μg in 50 μl) and 1% pluronic acid-127 (cat #P2443 Sigma, St Louis, MO) as the stock solution. Forty eight hrs after seeding, cells were loaded with 2 μM Fura-2AM dye for 45 min at room temperature in the dark in a standard Ca+2 buffer solution containing: 125 mM NaCl, 2 mM MgCl, 4.5 mM KCl, 10 glucose, 20 mM HEPES, 2 mM CaCl2, pH 7.4.25. Following dye loading, coverslips were washed with Ca^+2 buffer solution. […] Regions of interest over the field of view were selected and the mean pixels intensity at each frame was measured. Data was plotted as ratio fluorescence intensity versus time and subsequently converted to a relative scale. […]

ITPR1, sequence (Q14643 whole entry): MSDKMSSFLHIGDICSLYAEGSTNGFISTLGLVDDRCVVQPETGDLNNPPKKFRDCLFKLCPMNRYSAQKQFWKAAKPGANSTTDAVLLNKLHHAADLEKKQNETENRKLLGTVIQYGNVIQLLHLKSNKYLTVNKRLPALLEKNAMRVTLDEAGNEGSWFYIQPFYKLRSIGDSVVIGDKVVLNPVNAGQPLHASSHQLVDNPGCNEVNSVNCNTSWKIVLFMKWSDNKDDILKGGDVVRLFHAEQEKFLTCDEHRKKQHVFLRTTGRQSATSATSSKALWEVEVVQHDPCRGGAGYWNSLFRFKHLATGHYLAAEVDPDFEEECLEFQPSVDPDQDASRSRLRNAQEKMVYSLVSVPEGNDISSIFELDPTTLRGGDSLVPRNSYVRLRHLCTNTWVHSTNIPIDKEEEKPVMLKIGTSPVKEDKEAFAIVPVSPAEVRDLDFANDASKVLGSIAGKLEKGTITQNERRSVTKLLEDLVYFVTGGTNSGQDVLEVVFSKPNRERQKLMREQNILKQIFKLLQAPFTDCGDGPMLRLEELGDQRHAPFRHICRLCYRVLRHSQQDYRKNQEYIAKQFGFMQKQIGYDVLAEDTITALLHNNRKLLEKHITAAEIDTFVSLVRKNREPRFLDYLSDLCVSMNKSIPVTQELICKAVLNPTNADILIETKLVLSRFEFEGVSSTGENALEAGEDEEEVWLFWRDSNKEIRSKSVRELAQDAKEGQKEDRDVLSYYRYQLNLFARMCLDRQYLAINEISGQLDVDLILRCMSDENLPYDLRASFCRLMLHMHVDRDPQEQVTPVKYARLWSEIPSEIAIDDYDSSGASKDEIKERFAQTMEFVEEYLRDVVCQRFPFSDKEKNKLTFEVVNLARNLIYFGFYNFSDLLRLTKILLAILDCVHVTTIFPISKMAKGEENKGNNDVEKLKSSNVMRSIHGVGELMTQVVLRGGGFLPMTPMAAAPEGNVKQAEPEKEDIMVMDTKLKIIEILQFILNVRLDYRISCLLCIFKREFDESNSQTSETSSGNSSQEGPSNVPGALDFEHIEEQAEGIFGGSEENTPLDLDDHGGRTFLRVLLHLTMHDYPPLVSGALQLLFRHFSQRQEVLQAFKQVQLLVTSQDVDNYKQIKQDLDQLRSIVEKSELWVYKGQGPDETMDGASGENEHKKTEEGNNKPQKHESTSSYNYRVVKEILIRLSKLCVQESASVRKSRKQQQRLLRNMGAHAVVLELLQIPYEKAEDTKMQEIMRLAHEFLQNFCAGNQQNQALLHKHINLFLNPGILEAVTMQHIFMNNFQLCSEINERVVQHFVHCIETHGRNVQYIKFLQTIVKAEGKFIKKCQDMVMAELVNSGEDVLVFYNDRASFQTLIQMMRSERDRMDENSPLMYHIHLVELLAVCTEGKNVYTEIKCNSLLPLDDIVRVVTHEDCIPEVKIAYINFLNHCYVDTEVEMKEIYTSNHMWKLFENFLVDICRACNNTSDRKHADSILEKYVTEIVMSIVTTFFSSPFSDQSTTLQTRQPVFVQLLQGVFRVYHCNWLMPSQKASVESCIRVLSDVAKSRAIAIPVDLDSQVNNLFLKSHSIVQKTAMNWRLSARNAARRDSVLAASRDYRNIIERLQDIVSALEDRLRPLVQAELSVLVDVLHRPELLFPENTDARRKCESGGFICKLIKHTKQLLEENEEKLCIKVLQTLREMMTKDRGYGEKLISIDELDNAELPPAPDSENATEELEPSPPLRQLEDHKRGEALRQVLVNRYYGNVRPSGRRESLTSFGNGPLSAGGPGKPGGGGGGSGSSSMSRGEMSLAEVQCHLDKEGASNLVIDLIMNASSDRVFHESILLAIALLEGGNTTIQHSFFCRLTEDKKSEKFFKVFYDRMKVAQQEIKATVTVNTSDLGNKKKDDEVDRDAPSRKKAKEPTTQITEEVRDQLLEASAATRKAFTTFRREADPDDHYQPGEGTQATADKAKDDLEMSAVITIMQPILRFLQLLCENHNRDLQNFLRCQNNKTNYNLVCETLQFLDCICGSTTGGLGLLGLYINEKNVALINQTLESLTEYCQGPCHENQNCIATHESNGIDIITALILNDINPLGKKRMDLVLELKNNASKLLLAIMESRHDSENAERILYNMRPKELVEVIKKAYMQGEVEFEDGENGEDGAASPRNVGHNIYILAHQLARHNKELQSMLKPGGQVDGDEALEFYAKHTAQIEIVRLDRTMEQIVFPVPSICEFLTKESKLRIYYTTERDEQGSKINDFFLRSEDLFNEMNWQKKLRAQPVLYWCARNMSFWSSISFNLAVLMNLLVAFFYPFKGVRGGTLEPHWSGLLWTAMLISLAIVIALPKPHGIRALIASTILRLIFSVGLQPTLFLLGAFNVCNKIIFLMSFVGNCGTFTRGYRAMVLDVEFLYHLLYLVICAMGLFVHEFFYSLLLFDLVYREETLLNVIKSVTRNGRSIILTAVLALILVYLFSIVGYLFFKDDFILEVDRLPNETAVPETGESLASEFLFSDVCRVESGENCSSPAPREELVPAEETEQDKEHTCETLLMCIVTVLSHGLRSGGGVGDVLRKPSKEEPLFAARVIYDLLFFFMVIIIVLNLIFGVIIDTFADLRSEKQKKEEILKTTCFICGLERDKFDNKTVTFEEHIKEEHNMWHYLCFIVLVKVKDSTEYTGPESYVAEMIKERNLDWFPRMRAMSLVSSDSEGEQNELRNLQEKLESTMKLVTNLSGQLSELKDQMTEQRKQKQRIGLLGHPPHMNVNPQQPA

B1: CA8-201: wildtype full length CA8 transcript/peptide (protein, UniProt P35219 1-290, looked up)
chain: MADLSFIEDTVAFPEKEEDEEEEEEGVEWGYEEGVEWGLVFPDANGEYQSPINLNSREARYDPSLLDVRLSPNYVVCRDCEVTNDGHTIQVILKSKSVLSGGPLPQGHEFELYEVRFHWGRENQRGSEHTVNFKAFPMELHLIHWNSTLFGSIDEAVGKPHGIAIIALFVQIGKEHVGLKAVTEILQDIQYKGKSKTIPCFNPNTLLPDPLLRDYWVYEGSLTIPPCSEGVTWILFRYPLTISQLQIEEFRRLRTHVKGAELVEGCDGILGDNFRPTQPLSDRVIRAAFQ
modifications: full-length V5 tag
notes: wildtype full length CA8 transcript/peptide
With B1 the “NGF-induced ITPR1 activation (pITPR1)” value [1] was “inhibits NGF-induced ITPR1 activation (pITPR1)”, the “NGF-induced intracellular calcium release” value ([1]; NBL cells) was “nearly completely” and the ATP-stimulated calcium release [2] was “able to inhibit Ca^2+ release”.
